Data: the nanobody polyreactivity screen of Harvey et al. (2022)

Assay: yeast display, Sf9 membrane polyspecificity reagent, FACS + sequencing; frameworks hold sequencing errors
How it was run: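 Galactose induction of a Saccharomyces cerevisiae BJ5465 synthetic nanobody display library ran 36–48 hours. The cells were then stained for 1 hour at 4 °C with 10% biotinylated, detergent-solubilized Sf9 membrane reagent, pulled down on streptavidin microbeads and FACS-sorted into low and high (top ~1%) gates on expression and reagent-binding fluorescence. Labels for polyreactivity follow the gate of origin.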

Row | Sequence | polyreactivity (PSR sort gate)
1 | QVQLVESGGGLVQAGGSLRLSCAASGSIFYYNAMGWYRQAPGKERELVAAINSNGGSTYYADSVKGRFTISRDNAKNSVYFQMNSLKPEDTAVYYCNARYPGRTQGRYYYWGHGTQVTVSS | low polyreactivity
2 | QVQLVESGGGLVQAGGSLRLSCAASGRIFDRYDMGWYRQAPGKERELVAGITASGGSTYYADSVKGRFTISRDNAKNTVYLQMTSLKPEDTAVYYCAVVYGYRYYYWGQGTQVTVSS | high polyreactivity
3 | QVQLVESGGGLVQAGGSLRLSCAASGSIYGRYVMGWYRQSPGKERELVATISSGGSTYYADSVKGRFTISRDNAKNTVYLQMNSLKPEDTAVYYCAASYSRFVDWIGDPGYDYWGQGTQVTVSS | low polyreactivity
4 | QVQLVESGGGIVQAGGSLRLSSAASGNKFSLNGMGWYRQAPGKEREFVAAITWSVGSRYYADSVKGRLTISRDNAKHTVYLPMNILKPEDTAVYYCAATVSDLYKIEYYYWGQGTQVSVSS | low polyreactivity
5 | QVQLVESGGGLVQAGGSLRLSCAASGRIFRNYAMGWYRQAPGKERELVAAISGNGGNTYYADSVKGRFTISRDNAKNTVYLQMNSLKPEDTAVYYCNAYHWLYSYRYSRTYDYWGQGTQVTVSS | high polyreactivity
6 | QVQLVESGGGLVQSGGSLRLSCAASGSTFSRYVMGSYRQAPGKERELVAAITNTGSTYYADSVKGRFTISRDNAKNTVYLQMNSLKPEDTAVYYCAATQYRSDGWRYDYWGQGTQVTVSS | high polyreactivity
7 | QVQLVESGGGLVQAGGSLRLSCAASGSIFSSYAMGWYRQAPGKERELVAAISQSGGDTYYADSVKGRFTISRDNAKYTVYLQMNSLKPDDTAVYYCAASVWYFPMDYWGQGTQLTVSS | low polyreactivity
8 | QVQLVDSGGGLVQAGGSLRLSCAASGRIFPYYTMGCYRQAPGKETEFVAAISSSSVSTYYADSVKGRFTISRDNAKNTVYLQMNSLKAEDTAVYYCAAKRVGYHIGYVYPYGYWGQGTQVTVSS | high polyreactivity
9 | QVQLVESGGGLVQAGGTLRLSCGASGLIFTSNAMGWYRQAPGKESELVAAISNTGGSTYYADSVKGRFTISRDNSKNTVYLQMNSLKPEDTAVYYCAVDPAAGLTNVFYLKYFGYDFWGQGTQVTVSS | low polyreactivity
10 | QVQLVESGGGLVQAGGSLRLSCAASGITFNSYAMGWYRQAPGKERELVASITERGDSTYYADSVKGRFTLSRDNAKNTVYLQMNSLKPEDTGVYYCAAAEHLTRPSSPTQDGDHWGQGTQVTVSS | low polyreactivity
11 | QFQLVESGGGLVQAGGSLRLSCAASGRIWWNAKGWYRQAPGNEREMVAAIRWSGGIKRYADSVKGRFTISRDNAKNTVYLQMNSLKREDTAVYYCDARLGGSIRSKFDYWGQGTQVTVSS | high polyreactivity
12 | QFQLVESGGGLVQAGGSLRLSCAASGSTFQWYAMGWYRQAPGKERELVAAINKSGGTTYYADSVKGRFTISRDNAKNTVYLQMNSLKPEDTAVYYCATDNPVVYQPGNMDYWGQGTQVTVSS | low polyreactivity
13 | QVQLVESGGGLVQAGGSLRLSCAAYGLTFLSNAMGWYRPAPGKEREFVAAITKSGGRTYYADSVKGRFTISRDNAKNTVYFQMNSLKPEDTSVYYCAASGTSPRSTWYNSWGQGTQVTVSS | high polyreactivity
14 | QVQLVESGVGLVQAGGSLRLSCAASGSIFYVYAMGWYRQAPGKERELVAAITNYADSVKGRFTISRDNAKNTVYLQMNSLKPEDTAVYYCAADWWRVEMDYWGQGTQVTVSS | low polyreactivity
15 | QVQLVESGGGLVQAGGSLRLSCAASGRTFGVYAMGWYRQAPGKERELVATITSVDRTNYADSVKGRFTISRDNAKNTVYLQMNSLKPEDTAVYYCAAVGRWPRYYYWGQGTQVTVSS | high polyreactivity
16 | RVQLQESGGGLVQAGGSLRLSCAASGTIFIRGDMGWYRQAPGKEREFVATIDTGSNTYNADSEKGRFTISRDNAKNAVYLQMNCLKPGDTAVYYCVVDYQLSGRLRYWGQGTQVTLSS | low polyreactivity

Row | Sequence | polyreactivity (PSR sort gate)
17 | QVQLVESGGGLVQAGGSLRLSCAASGFIFEDYAMGWYRQAPGKERELVAAIRSNDDSTYYADSVKGRFTISRDNSKNTVYLHMNSLKPEDTAVYYCNKGLRRWSTRSHYYYWGQGTQVTVSS | high polyreactivity
18 | QVQLVESGGGLVQAGGSLRLSCAASGYTFYYAMGWYRQAPGKERELVAAISAGGGRTYYADSVKGRFTISRDNAKNTVYLQMNSLKPEDTAVYYCNRVYRLTAYGYDYWGQGTQVTVSS | high polyreactivity
19 | QVQLVESGGGLVQAGGSLRLSCAASGIIFDRNTMGWYRQAPGKEREYVAAISRNGGSTSYADSVKGRFTISRDNAKNTVYLQMNSLKPEDTAVYDCAADVETFWGWRYEYWGQGTQVTVSS | low polyreactivity
20 | QVQLVESGGGLVQAGGSLRLSCAASGYIFDRYAMGWYRQAPGKERELVAAITNGGRTYYADSVKGRFTISRDNAKNTVYLQMNSLKPEDTAVYYCAAVVYSRGYYWGQGTQVTVSS | high polyreactivity
21 | QVQLVESGGGLVQAGGSLRLSCAASGLTFVTYAKGWYRQAPGKERELVAAISYSGGSTYYADSVKGRFTISRDNAKNTVYLQMNSLKPEDTAVYYCNARSPQPDGRPPYNYWGQGTQVTVSS | high polyreactivity
22 | QVQLVESGGRIVQAGGSLRLICAASGRIFVRNAMGWYRQAPGKERELVAAITTSGGRTYYADSVKGRFTISRDNAKNTVYLQMNSLKPEDTAVYYCAADTRYRNYPYYYWGQGTQVTVSS | high polyreactivity
23 | QVQLVESGGGLVQAGCSLRLICAASRSTFTDNAMGWYRQAPGKESELVAAISTGTSTYADSVKGRFTISRDNATNTVYLQMNRLKPEDTAGYYCAADVGIRPLNYHPYNYWGQGTQVTVSS | low polyreactivity
24 | QVQLVESGGGLVQAGGSLRLSCAASGSTFGWYAMGWYRQAPGIERELVATITSDSSTYYADSVKGRFTISRDNAKNTVYLQMNSLKPQDTAVYYCAATNYWIEYAPGYGLYSVEDDYWGQGTQVTVSS | low polyreactivity
25 | QVQLVESWAGLVQAGGRLRLSCAASGSSFQVYAMGWYRQAPGKERELVAAISGDGGSTYYADSVKGRFTISRDNAKNTVYLQMNSLKPEDTAVYYCAARGLFRYTDYGYWGQGTQVTVST | low polyreactivity
26 | QVQLVESGGGLVQAGGSLRLSCAASGSIFEVYAMGWYRQAPGKEREFVATISGSGGSTYYADSVKGRFTISRDNAKNTVYLQMNSLKPEDTAVYYCAASIAWYSSFVITYYYWGQGTQVTVSS | low polyreactivity
27 | QVQLVESGGGLVQAGGRLRLSCAASGSTFTDYAMGWYRQAPRKERELVASITSGGRTNYADSVKGRFTITRDNAKNTVYLQMNSLKPEDTAVYYCAADYSVPTSQAYDYWGQGTQVTVSS | low polyreactivity
28 | QVQLVESGGGLVQAGGSLRLSCAASGYTSRYYAMGWYRQAPGKERELVAAITSGGSTNYADSVKGRFTISRDNAKNTVYLQMNSLKPEDTAVYYCAKGQYPWSYVLQTYIYDYWGQGTQVTVSS | low polyreactivity
29 | QVQLVESGGGLVQAGGSLRLSCAASGSIFVTNPMGWYRQAPGKERELVAAIRGGGGSTYYADSVKGRFTISRDNAKNTVYLQMNSLKPEDTAVYYCNADRRGYLQSEMDYWGQGTQVTVSS | low polyreactivity
30 | QVQLVESGGGLVQAGGSLRLSCAASGFIFVDYDMGWYRQAPGKERELVAAITDSGTSTYYADSVKGRFTISRDNAKNTVYLQMNSLKPEDTAVYYCNTDVSPSFDYWGQGTQVTVSS | low polyreactivity
31 | QVQLVESGGGLVQAGGSLRLSCAASGSTYAYYAMGWYRQATGKERELVAAISLSSGCTYYADSVKGRFTISRDKAKNTVYLQMNSLKPEDTAVYYCAADFASDSSRYEYWGQGTQVTVSS | low polyreactivity
